The numbers were not newly measured in publication PMC3569056, which cites them from elsewhere.

In the series the target is Cys22 (UniProt position 23, FIKPTCPYCRR). As to the kind of experiment: chemical modification.

In the case of “Glutaredoxin 1 (hGrx1, thioltransferase) (Homo sapiens)”, the pKa (commonly the pH at which an ionisable group is half protonated) is 3.5.
